Results from patent US9096835B2, “DNA polymerase” (Medical Research Council, priority 2003, dated 2015).
Where “and” joins values, the source holds several entries; their conditions need not be identical. Equal values may be shown once.

What was measured:
[1] = tested on: template containing an abasic site; test: Translesion replication assay (primer extension), abasic site; assay type: biochemical; conditions: gel-extension assay, 60° C.
Method in brief: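 A 5′-^32P-labelled 20mer primer was annealed (1:1.5) to 51mer templates bearing an abasic site or a cis-syn thymine dimer, 10 nM in final reactions. Extension ran in 40 mM Tris·HCl pH 8.0, 5 mM MgCl2, 100 μM each dNTP, 0.1 U polymerase at 60 °C for various times. Products were resolved on 20% urea-PAGE and imaged by PhosphorImager.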

[2] = target: matched and mismatched primer-template duplex; test: Template affinity equilibrium binding assay; conditions: not shown
Procedure: An equilibrium binding assay (12) was used to determine relative affinity of polymerases for the mismatched primer-templates used in the kinetics assays. Polymerases were preincubated at 60° C. in 1× Taq buffer with 50 nM ^32P-labeled matched primer-template and 50 nM unlabeled mismatched competitor primer-templates. Reactions were initiated by simultaneous addition of dCTP (200 μM) and trap DNA (XbaI/SalI-restricted sheared salmon sperm DNA, 4.5 mg/ml).

[3] = PCR with all four dNTPs replaced by αS dNTPs; assay type: biochemical; conditions: 50 cycle PCR, 50 μM αS dNTPs
Procedure: A PCR assay was used to screen and rank clones. Briefly, clones were normalized for activity in PCR with matched primers 3, 4 and activity with mismatched primers 1 and 2 (1 μM each) determined at minimal cycle number (15-25 cycles). Extension capability for different mismatches was determined by the same assay using mismatch primers 2 (C•C mismatch), 5 (A•A mismatch), 6 (G•G mismatch), 7 (G•A mismatch) with matched primer 3 or primer 1 (A•G mismatch) with matched primer 4. Incorporation of unnatural substrates in 50 cycle PCR was carried out using standard conditions and 50 μM […] dNTPs (Promega) or 50 μM FITC-12-dATP (Perkin-Elmer), Rhodamine-5-dUTP (Perkin-Elmer) or Biotin-16-dUTP (Roche) with equivalent amounts of the other 3 dNTPs (all 50 μM). Long PCR was carried out using a two-step cycling protocol as described (22) 94° C. for 2 minutes, followed by 20 cycles of (94° C. 15 sec, 68° C. 30 min) using 5 ng of phage λ DNA (New England Biolabs) template and either primers 9, 10, 11 with primer 12 or primer 13 with primers 10, 14.

[4] = tested on: primer-template duplex, correct or incorrect incoming dNTP; test: Steady-state single nucleotide incorporation kinetics, gel-based assay; assay type: biochemical
Procedure: Kinetic parameters were determined using a gel-based assay essentially as described (16). Primers 15, 16, 17 (3′ base=G, C, A respectively) were ^32P-labeled and annealed to one of template strands 18, 19, 20 (template base=C, G, A respectively) or 21 (template base C different context). Duplex substrates were used at 50 nM final concentration in 1× Taq buffer with various concentrations of enzyme and dNTP. Reactions were carried out at 60° C. for times whereby <20% of primer-template was utilized at the highest concentration of dNTP.
Extension and incorporation kinetics of M1 and M4 for a selection of mismatches were measured using a gel-based steady-state kinetic assay (Goodman) (Tables 1 & 2). M1 and M4 respectively extend a C•C mispair 390 and 75-fold more efficiently than wtTaq. […] The gain in extension efficiency derives predominantly from increased relative Vmax values for the mutant polymerases, while Km for nucleotide substrates remains largely unchanged. For most DNA polymerases the relative efficiency of extending a given mispair (f0ext) is similar to the relative efficiency of forming it (finc) (Goodman 1993, Goodman 1990, Washington 2001). Indeed, M1 and M4 respectively incorporate dCTP opposite template base C 206- and 29-fold more efficiently than wtTaq (Table 2).

[5] = tested on: template containing a single 5-nitroindole; test: 5NI replication assay; assay type: biochemical; conditions: primer extension, 60° C.
Procedure: Primer 26 was ^32P-labeled and annealed to template primer 27 (containing a single 5-nitroindole) in 1× Taq buffer, 0.1 or 0.5 U of the polymerase was added and reactions incubated at 60° C. for 15 mins, after which 40 μM of each dNTP were added and incubation at 60° C. continued for various times.

[6] = tested on: template containing a cis-syn cyclobutane thymine-thymine dimer (CPD); test: Translesion replication assay (primer extension), CPD; assay type: biochemical; conditions: gel-extension assay, 60° C.
Procedure: Template primers 22 (undamaged) or 23 (containing a synthetic abasic site) were synthesized by Lofstrand Laboratories (Gaithersburg, Md.). Template primer 24 (containing a single cis-syn thymine dimer), was synthesized as described (34). Primer 25 was ^32P-labeled and annealed to one of the three templates 22, 23, 24 (at a primer template ratio of molar 1:1.5) and extended in 40 mM Tris.HCl at pH 8.0, 5 mM MgCl2, 100 μM of each dNTP, 10 mM DTT, 250 μg/ml BSA, 2.5% glycerol, 10 nM primer-template DNA and 0.1 Unit of polymerase at 60° C. for various times.
Primer extension assays were essentially as described in (Ghadessy et al., 2004). Briefly, undamaged oligonucleotides and a 51mer containing a synthetic abasic site were synthesized by Lofstrand Laboratories (Gaithersburg, Md.) using standard techniques and were gel purified prior to use. A 20mer primer (LES—20 P) with the sequence 5′-[…]-3′ (SEQ ID NO: 99) was 5′-labeled with [^32P]ATP (5000 Ci/mmole; 1 Ci=37 GBq) (Pharmacia) using T4 polynucleotide kinase (Invitrogen, Carlsbad Calif.). Radiolabeled primer-template DNAs were prepared by annealing the 5′[^32P] labeled 20mer primer to one of the two following 51mer templates (at a primer template ratio of molar 1:1.5). 1) undamaged DNA (UNDT51T); 5′-AGCTACCATGCCTGCACGAATTCGGCATCCGTCGCGACCACGGTCGCAGCG-3′ (SEQ ID NO: 100); 2) an oligo (LABA51T) containing a synthetic abasic site (indicated as an X in bold font); 5′-AGCTACCATGCCTGCACGACA XCG GCATCCGTCGCGACCACGGTCGCAGCG-3′ (SEQ ID NO: 101). Standard replication reactions of 10 contained 40 mM Tris.HCl at pH 8.0, 5 mM MgCl2, 100 μM of each ultrapure dNTP (Amersham Pharmacia Biotech, NJ), 10 mM DTT, 250 μg/ml BSA, 2.5% glycerol, 10 nM 5′[32P] primer-template DNA and 0.1 Unit of polymerase. After incubation at 60° C. for various times reactions were terminated by the addition of 10 μl of 95% formamide/10 mM EDTA and the samples heated to 100° C. for 5 min. Reaction mixtures (5 μl) were subjected to 20% polyacrylamide/7 M Urea gel electrophoresis and replication products visualized by PhosphorImager analysis.

B1: M4: Taq mutant D58G, R74P, A109T, L245R, R343G, G370D, E520G, N583S, E694K, A743P; SEQ ID NO 2 (protein)
chain: MRGMLPLYEPKGRVLLVDGHHLAYRTFHALKGLTTSRGEPVQAVYGFAKSLLKALKEGGDAVIVVFDAKAPSFPHEAYGGYKAGRAPTPEDFPRQLALIKELVDLLGLTRLEVPGYEADDVLASLAKKAEKEGYEVRILTADKDLYQLLSDRIHVLHPEGYLITPAWLWEKYGLRPDQWADYRALTGDESDNLPGVKGIGEKTARKLLEEWGSLEALLKNLDRLKPAIREKILAHMDDLKLSWDRAKVRTDLPLEVDFAKRREPDRERLRAFLERLEFGSLLHEFGLLESPKALEEAPWPPPEGAFVGFVLSRKEPMWADLLALAAARGGRVHRAPEPYKALGDLKEARGLLAKDLSVLALREGLGLPPDDDPMLLAYLLDPSNTTPEGVARRYGGEWTEEAGERAALSERLFANLWGRLEGEERLLWLYREVERPLSAVLAHMEATGVRLDVAYLRALSLEVAEEIARLEAEVFRLAGHPFNLNSRDQLERVLFDELGLPAIGKTEKTGKRSTSAAVLGALREAHPIVEKILQYRELTKLKSTYIDPLPDLIHPRTGRLHTRFNQTATATGRLSSSDPNLQSIPVRTPLGQRIRRAFIAEEGWLLVALDYSQIELRVLAHLSGDENLIRVFQEGRDIHTETASWMFGVPREAVDPLMRRAAKTINFGVLYGMSAHRLSQELAIPYEEAQAFIKRYFQSFPKVRAWIEKTLEEGRRRGYVETLFGRRRYVPDLEARVKSVREPAERMAFNMPVQGTAADLMKLAMVKLFPRLEEMGARMLLQVHDELVLEAPKERAEAVARLAKEVMEGVYPLAVPLEVEVGIGEDWLSAKE
modifications: Mutant Thermus aquaticus DNA polymerase
In the case of B1, the “abasic site bypass in primer extension” value [1] is reported as “able to extend past the lesion and to the end of the template”, the “dissociation constants for matched and mismatched primer-template duplex” value [2] is reported as “indistinguishable” and the “PCR amplification with all four αS dNTPs” value [3] is reported as “to lesser extent”. The Km ([4]; base pair C: dCTP) was 1390 µM, the “Ratio of finc, finc (mutant polymerase)/finc (wtTaq)” value (from here on “Ratio of finc, finc”) ([4]; base pair C: dCTP) was 29 and 29.22 and the “finc, f (incorrect dNTP)/f (correct dNTP)” value (“finc, f (incorrect dNTP)/f” below) ([4]; base pair C: dCTP) was 1.13 × 10^−6. It also gave a Vmax ([4]; base pair C: dCTP (template base: incoming nucleotide)) of 52.63 % Min^−1, a Vmax ([4]; base pair C: dGTP (template base: incoming nucleotide), correct dNTP) of 335.42 % Min^−1 and a Km ([4]; base pair C: dGTP, correct dNTP) of 0.01 µM. The Km ([4]; base pair G: dATP) was 158 µM, the “Ratio of finc, finc” value ([4]; base pair G: dATP) was 2.18 and the “finc, f (incorrect dNTP)/f” value ([4]; base pair G: dATP) was 1.80 × 10^−4. It also gave a Vmax ([4]; base pair G: dATP (template base: incoming nucleotide)) of 1935.48 % Min^−1, a Vmax ([4]; base pair G: dCTP (template base: incoming nucleotide), correct dNTP) of 817 % Min^−1 and a Km ([4]; base pair G: dCTP, correct dNTP) of 0.012 µM. The Km ([4]; base pair G: dGTP) was 82.3 µM, the “Ratio of finc, finc” value ([4]; base pair G: dGTP) was 68.82 and the “finc, f (incorrect dNTP)/f” value ([4]; base pair G: dGTP) was 1.17 × 10^−4. The Vmax ([4]; base pair G: dGTP (template base: incoming nucleotide)) was 656.46 % Min^−1, the Km ([4]; base pair G: dTTP) was 5.1 µM and the “Ratio of finc, finc” value ([4]; base pair G: dTTP) was 1.1. For the same molecule, the “finc, f (incorrect dNTP)/f” value ([4]; base pair G: dTTP) was 1.82 × 10^−4, the Vmax ([4]; base pair G: dTTP (template base: incoming nucleotide)) was 63.20 % Min^−1 and the “bypass of template strand 5NI” value [5] was “efficiently bypass template strand 5NI”. The “CPD bypass in primer extension” value [6] was “able to readily extend all of the primer to the 3′T of the dimer”.
